This passage reports stoichiometry N results from publication PMC3916413.

In the test the target is T1, endogenous Asc of mouse macrophages (mouse (endogenous in BMDM)), Q9EPB4.
T1 chain: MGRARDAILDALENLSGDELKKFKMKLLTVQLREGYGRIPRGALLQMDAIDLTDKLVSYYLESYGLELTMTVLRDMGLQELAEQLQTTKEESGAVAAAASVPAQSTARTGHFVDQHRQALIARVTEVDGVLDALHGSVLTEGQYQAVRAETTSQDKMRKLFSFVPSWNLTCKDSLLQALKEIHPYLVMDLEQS
Nature of the test: cross-linking; insoluble fraction (pellet) of BMDM lysates cross-linked with 2 mM disuccinimidyl suberate for 30 min, immunoblot with anti-Asc; cells infected with WT Shigella or Salmonella, T3SS-deficient or fliA mutants, nucleofected with MxiI, or with siRNA to Naip2 or Naip5. The following applies: remark: other sources report otherwise.

B1: endogenous Asc of mouse macrophages, Q9EPB4 1-193 (natural protein)
chain: T1 chain
On to B1, for which the stoichiometry N is 2.
